Test [1] has as its target Aβ in the dimer and trimer bands of the culture media of C99 transfected CHO cells (isoform not determined) (human). The experiment in a line: SDS-PAGE and western blot of oligomer bands; CHO cell lysates (4% SDS lysis buffer, heated 10 min at 70 °C with 50 mM DTT) and lyophilised culture media 48 h after transfection; 4-12% NuPAGE bis-tris gels; detected with anti-Aβ W0-2.

For test [2], the target named is C99-derived hexameric Aβ42 (cell-derived amyloid-β 42 from CHO cells transfected with C99) (human) (UniProt P05067). The test is described as above.
Test [3] shares this target. The experiment in a line: GELFrEE fractionation by size and western blot; Aβ immunoprecipitated with W0-2 from media, boiled at 95 °C with DTT, separated on the GELFrEE 8100 system; fractions blotted with W0-2; hexamer in fraction 5. (In general: In western blotting, separated proteins are transferred to a membrane and probed.)
Test [4] addresses Hexameric Aβ from CHO cells transfected with C99 carrying the Arctic (E22G) FAD mutation (human). Nature of the test: SDS-PAGE and western blot of oligomer bands; CHO cell lysates (4% SDS lysis buffer, heated 10 min at 70 °C with 50 mM DTT) and lyophilised culture media 48 h after transfection; 4-12% NuPAGE bis-tris gels; detected with anti-Aβ W0-2.
Test [5] concerns the target Hexameric Aβ from CHO cells transfected with C99 carrying the Dutch (E22Q) FAD mutation (human). The description is as above.
In test [6] the target is Hexameric Aβ from CHO cells transfected with C99 carrying the Flemish (A21G) FAD mutation (human). The test is described as above.
For test [7], the target named is Hexameric Aβ from CHO cells transfected with C99 carrying the Iowa (D23N) FAD mutation (human). The test is described as above.
The target of test [8] is Hexameric Aβ from CHO cells transfected with C99 carrying the Italian (E22K) FAD mutation (human). Described as above.
Test [9] addresses vC42, assembly-impaired variant of Aβ42 (F19S, G37D) from transfected CHO cells (human). Described as above.

“And” between values parts separate entries of the source, which are not always exact repeats. Identical values can stand only once.

A word on the stoichiometry N: it is a count of units in the complex or per binding partner.

For “Aβ in the dimer and trimer bands of the culture media of C99 transfected CHO cells (isoform not determined) (peptide)”, the stoichiometry N in test [1] is 2 and 3. On to “C99-derived hexameric Aβ42 (cell-derived amyloid-β 42 from CHO cells transfected with C99) (from UniProt P05067 672-770) (peptide)”, for which the stoichiometry N in test [2] and in test [3] was 6 throughout. “Hexameric Aβ from CHO cells transfected with C99 carrying the Arctic (E22G) FAD mutation (peptide)”: in test [4], the stoichiometry N amounted to 6. In the case of “Hexameric Aβ from CHO cells transfected with C99 carrying the Dutch (E22Q) FAD mutation (peptide)”, in [5], the stoichiometry N is 6. Consider “Hexameric Aβ from CHO cells transfected with C99 carrying the Flemish (A21G) FAD mutation (peptide)”, for which the stoichiometry N in test [6] is 6.

In [7], “Hexameric Aβ from CHO cells transfected with C99 carrying the Iowa (D23N) FAD mutation (peptide)” returned a stoichiometry N of 6. In the case of “Hexameric Aβ from CHO cells transfected with C99 carrying the Italian (E22K) FAD mutation (peptide)”, the stoichiometry N in test [8] stood at 6. As to “vC42, assembly-impaired variant of Aβ42 (F19S, G37D) from transfected CHO cells (peptide)”, the stoichiometry N in test [9] was 2 and 3.
